The record followed here is US20150322156A1 (TOHOKU UNIVERSITY, published 2015).

To fix the notation:
B1: lysine-substituted single-chain antibody "OK" containing VH0K and VL0K (all lysine residues replaced) (scFv)
scFv: QVQLVQSGAEVAEPGASVQVSCAASGYTFTSYWMHWVRQAPGQGLEWMGNIYPGSGGTNYAEEFQNRVTMTRDTSISTAYMELSRLRSDDTAVYYCARSGGPYFFDYWGQGTLVTVSSGGGGSGGGGSGGGGSDIVMTQSPLSLPVTPGEPASISCRSSQNIVHNNGITYLEWYLQRPGQSPQLLIYQVSDRFSGVPDRFSGSGSGTDFTLTISRVEAEDVGVYYCFQGSHIPPTFGQGTEVEIERHHHHHH
notes: Expressed in E. coli; also called VH0K VL0K
B2: lysine-substituted single-chain antibody "HK" containing VH1K and VL0K (H19 re-replaced with lysine) (scFv)
scFv: QVQLVQSGAEVAEPGASVKVSCAASGYTFTSYWMHWVRQAPGQGLEWMGNIYPGSGGTNYAEEFQNRVTMTRDTSISTAYMELSRLRSDDTAVYYCARSGGPYFFDYWGQGTLVTVSSGGGGSGGGGSGGGGSDIVMTQSPLSLPVTPGEPASISCRSSQNIVHNNGITYLEWYLQRPGQSPQLLIYQVSDRFSGVPDRFSGSGSGTDFTLTISRVEAEDVGVYYCFQGSHIPPTFGQGTEVEIERHHHHHH
notes: Expressed in E. coli; also called VH1K VL0K
B3: lysine-substituted single-chain antibody "LK" containing VH0K and VL1K (L108 re-replaced with lysine) (scFv)
scFv: QVQLVQSGAEVAEPGASVQVSCAASGYTFTSYWMHWVRQAPGQGLEWMGNIYPGSGGTNYAEEFQNRVTMTRDTSISTAYMELSRLRSDDTAVYYCARSGGPYFFDYWGQGTLVTVSSGGGGSGGGGSGGGGSDIVMTQSPLSLPVTPGEPASISCRSSQNIVHNNGITYLEWYLQRPGQSPQLLIYQVSDRFSGVPDRFSGSGSGTDFTLTISRVEAEDVGVYYCFQGSHIPPTFGQGTKVEIERHHHHHH
notes: Expressed in E. coli; also called VH0K VL1K
B4: h528scFv, single-chain antibody of the humanized anti-human EGF receptor 1 (Her1) antibody 528 before lysine substitution (scFv)
scFv: QVQLVQSGAEVKKPGASVKVSCKASGYTFTSYWMHWVRQAPGQGLEWMGNIYPGSGGTNYAEKFKNRVTMTRDTSISTAYMELSRLRSDDTAVYYCARSGGPYFFDYWGQGTLVTVSSAGGGGSDIVMTQSPLSLPVTPGEPASISCRSSQNIVHNNGITYLEWYLQKPGQSPQLLIYKVSDRFSGVPDRFSGSGSGTDFTLKISRVEAEDVGVYYCFQGSHIPPTFGQGTKVEIKRAAAAEQKLISEEDLNLGGGMRGSHHHHHH
notes: also called PC

The assay deals with human EGF receptor 1 (EGFR) as used in the SPR rate analysis (UniProt P00533 25-645, limits assumed). The assay can be described thus: SPR rate analysis of scFv.
As usually defined, the koff is the rate constant with which the complex falls apart. A low value points to a long-lived complex. One may read the kon as the rate constant with which the complex forms. A low value points to slower complex formation. B1: the Ka turned out to be 7.32e+06 M⁻¹, the koff came to 0.00824 s⁻¹ and the on-rate constant (kon) was found to be 60300 M⁻¹ s⁻¹.

With B2, the Ka amounted to 8.82e+06 M⁻¹, the koff amounted to 0.00805 s⁻¹ and the kon is 71000 M⁻¹ s⁻¹.

The molecule B3 yielded a Ka of 8.34e+06 M⁻¹, a koff of 0.00853 s⁻¹ and a kon of 71100 M⁻¹ s⁻¹.

B4 showed a Ka of 2.61e+07 M⁻¹, a koff of 0.00542 s⁻¹ and a kon of 141000 M⁻¹ s⁻¹.
